Here are results for 1 protein from publication PMC7380666.

The data set can be described thus: purification, SEC and SDS-PAGE. The note with it: glycan lost; control: wild-type mCD98hcED.

B1: mCD98hcED (murine CD98hc extracellular domain): N385D/T401A (protein)
parent chain: MSQDTEVDMKDVELNELEPEKQPMNAADGAAAGEKNGLVKIKVAEDETEAGVKFTGLSKEELLKVAGSPGWVRTRWALLLLFWLGWLGMLAGAVVIIVRAPRCRELPVQRWWHKGALYRIGDLQAFVGRDAGGIAGLKSHLEYLSTLKVKGLVLGPIHKNQKDEINETDLKQINPTLGSQEDFKDLLQSAKKKSIHIILDLTPNYQGQNAWFLPAQADIVATKMKEALSSWLQDGVDGFQFRDVGKLMNAPLYLAEWQNITKNLSEDRLLIAGTESSDLQQIVNILESTSDLLLTSSYLSNSTFTGERTESLVTRFLNATGSQWCSWSVSQAGLLADFIPDHLLRLYQLLLFTLPGTPVFSYGDELGLQGALPGQPAKAPLMPWNESSIFHIPRPVSLNMTVKGQNEDPGSLLTQFRRLSDLRGKERSLLHGDFHALSSSPDLFSYIRHWDQNERYLVVLNFRDSGRSARLGASNLPAGISLPASAKLLLSTDSARQSREEDTSLKLENLSLNPYEGLLLQFPFVA
Regarding B1, the stability_or_folding entry is “no change”.
